Assay results reported in patent US20040037843A1 (published 2004).
Where two headings read alike, the source gives them in different places. Blank lines part the entries; values can stand above or below the binder they belong to.

What was measured:
HLA-A*0201 [1] = biological target: HLA-A*0201 (human)
HLA-A*0206 [2] = biological target: HLA-A*0206 (human); assay: inhibition of 125I probe peptide binding to purified HLA
HLA-A*0203 [3] = biological target: HLA-A*0203 (human); assay: as above
HLA-A*0201 [4] = biological target: HLA-A*0201 (human); assay: as above
HLA-A*0206 [5] = biological target: HLA-A*0206 (human)
HLA-A*0203 [6] = biological target: HLA-A*0203 (human)
HLA-A*6802 [7] = biological target: HLA-A*6802 (human); assay: inhibition of 125I probe peptide binding to purified HLA
HLA-A*6802 [8] = biological target: HLA-A*6802 (human); assay: competition with 125I-labeled probe peptide for purified HLA, gel filtration
HLA-A*0203 [9] = biological target: HLA-A*0203 (human); assay: as above
HLA-A*0206 [10] = biological target: HLA-A*0206 (human); assay: as above
HLA-A*0201 [11] = biological target: HLA-A*0201 (human); assay: as above
HLA-A*0201 [12] = biological target: HLA-A*0201 (human); remark: listed apart in the source
HLA-A*0203 [13] = biological target: HLA-A*0203 (human); assay: competition with 125I probe peptide on purified HLA, gel filtration
HLA-A*0202 [14] = biological target: HLA-A*0202 (human)
HLA-A*0202 [15] = biological target: HLA-A*0202 (human); assay: competition with 125I-labelled standard peptide for purified HLA
HLA-A*0202 [16] = biological target: HLA-A*0202 (human); assay: inhibition of 125I probe peptide binding to purified HLA, gel filtration

Binder: TLMSAMTNL [PAP.112]
IC50 (HLA-A*0201 [1]): ≤ 200 nM

Binder: LLLARAASLSL [PAP.6]
IC50 (HLA-A*0201 [1]): ≤ 200 nM

Binder: LMYSLVHNL [PSM.469]
IC50 (HLA-A*0201 [1]): ≤ 200 nM

Binder: MLLRLSEPAEL [PSA.118 (11-mer MLLRLSEPAEL)]
IC50 (HLA-A*0201 [1]): ≤ 200 nM

Binder: LLHETDSAV [PSM.4]
IC50 (HLA-A*0201 [1]): > 200 nM

Binder: ALVLAGGFFL [PSM.25]
IC50 (HLA-A*0201 [1]): > 200 nM

Binder: GLLGSTEWA [PSM.427]
IC50 (HLA-A*0201 [1]): > 200 nM

Binder: KLGSGNDFEV [PSM.514]
IC50 (HLA-A*0201 [1]): > 200 nM

Second part, the binder after the results:

IC50 (HLA-A*0206 [2]): 80 nM | IC50 (HLA-A*0203 [3]): 5.3 nM | IC50 (HLA-A*0201 [4]): 8.1 nM
Binder: LLLARAASLSL [Peptide 63.0136 LLLARAASLSL (PAP.6)]

IC50 (HLA-A*0206 [5]): 206 nM | IC50 (HLA-A*0203 [6]): 40 nM
Binder: ITLSVGCTGAV [peptide 1418.59 (HuK2.8.T2)]

IC50 (HLA-A*0203 [3]): 2.8 nM | IC50 (HLA-A*6802 [7]): 364 nM
Binder: FLLFFWLDRSV [Peptide 63.0138 FLLFFWLDRSV (PAP.20)]

IC50 (HLA-A*6802 [8]): 258 nM | IC50 (HLA-A*0203 [9]): 44 nM | IC50 (HLA-A*0206 [10]): 82 nM | IC50 (HLA-A*0201 [11]): 238 nM
Binder: ATFDIESKV [Peptide 1418.30]

IC50 (HLA-A*0201 [12]): 56 nM
Binder: KVTEFMLCAGV [peptide 1418.71, HuK2.191.V11]

IC50 (HLA-A*0203 [13]): 122 nM
Binder: TVSGLQMAV [Peptide 60.0213 TVSGLQMAV (PAP.292.V9)]

IC50 (HLA-A*0206 [5]): 5.2 nM | IC50 (HLA-A*0202 [14]): 6.3 nM | IC50 (HLA-A*0203 [6]): 2.8 nM
Binder: SLQCVSLHLV [peptide 1418.52 (HuK2.170.V10)]

IC50 (HLA-A*0201 [1]): ≤ 200 nM
Binder: MMNDQLMFL [PSM.663]

IC50 (HLA-A*0202 [15]): 3 nM
Binder: FLTLSVTWIGV [peptide 1419.27, PSA.3.V11]

IC50 (HLA-A*0202 [16]): 3 nM
Binder: FLTLSVTWIGV [Peptide 63.0186 (PSA.3.V11)]
